Experimental data from the supplement of paper PMC7877785.
± gives the uncertainty stated by the source.

Assay: self-splicing fitness, log relative to wild type (ln ratio); higher = more splicing; Tetrahymena group I intron in knt gene, E. coli kanamycin selection, DiMSum; sequences stand for … in CUCUCU…GGAGGGAAAAGUUAUCAGGCAUGCACCUGGUAGCUAGUCUUUAAACCAAUAGAUUGCAUCGGUUUAAAAGGCAAGACCGUCAAAUUGCGGGAAAGGGGUCAACAGCCGUUCAGUACCAAGUCUCAGGGGAAACUUUGAGAUGGCCUUGCAAAGGGUAUGGUAAUAAGCUGACGGACAUGGUCCUAACCACGCAGCCAAGUCCUAAGUCAACAGAUCUUCUGUUGAUAUGGAUGCAGUUCACAGACUAAAUGUCGGUCGGGGAAGAUGUAUUCUUCUCAUAAGAUAUAGUCGGACCUCUCCUUAAUGGGAGCUAGCGGAUGAAGUGAUGCAACACUGGAGCCGCUGGGAACUAAUUUGUAUGCGAAAGUAUAUUGAUUAGUUUUGGAGUACUCGUGGUCG
Outline: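 The eight P1ex-region nucleotides of an intron in the knt kanamycin-resistance gene on pET-22b(+) were all randomised and the library put into E. coli BL21(DE3). Six replicate transformations were grown overnight at 37°C or 30°C on LB agar with or without 25 μg/mL kanamycin, together with 100 μg/mL carbenicillin, 50 μM IPTG and 0.2% rhamnose. Colonies were pooled and amplicon-sequenced on an Illumina HiSeq 2500. Fitness from DiMSum is the error-weighted combination of wild-type-normalised replicate fold changes, kanamycin over none.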

Sequence	self-splicing fitness (ln) (30 °C)	self-splicing fitness (ln) (37 °C)
GGAUAGCAAUAUUACGUCAU	-2.02 ± 0.11	-0.395 ± 0.12
UCCAAGCAAUAUUACGAGGG	-3.08 ± 0.2	-2.31 ± 0.31
CUCUAGCAAUAUUACGCGUC	-3.9 ± 0.47	-2.85 ± 0.24
CCAUAGCAAUAUUACGCAGC	–	-3.34 ± 0.42
UCACAGCAAUAUUACGAAGU	-2.55 ± 0.22	-3.34 ± 0.31
UGCAAGCAAUAUUACGUAUG	-3.05 ± 0.16	-0.321 ± 0.1
CCAUAGCAAUAUUACGGCCC	-1.72 ± 0.22	–
AUUGAGCAAUAUUACGACGA	-3.19 ± 0.4	-0.517 ± 0.22
UGUAAGCAAUAUUACGUUCC	-4.53 ± 0.33	-0.21 ± 0.19
CUGGAGCAAUAUUACGUUAG	-1.65 ± 0.068	-1.51 ± 0.098
UUCGAGCAAUAUUACGAGUG	-1.81 ± 0.17	-0.223 ± 0.15
CCCUAGCAAUAUUACGGACG	-2.32 ± 0.097	-1.15 ± 0.11
CGACAGCAAUAUUACGUACA	-0.66 ± 0.078	-0.392 ± 0.099
AAUUAGCAAUAUUACGAGGG	-3.23 ± 0.23	-2.93 ± 0.3
UAUAAGCAAUAUUACGGUAA	-2.02 ± 0.2	-0.715 ± 0.14
CAGGAGCAAUAUUACGGGCA	-2.48 ± 0.15	-2.35 ± 0.22
GCGGAGCAAUAUUACGGAGU	-2.51 ± 0.33	-2.1 ± 0.29
CUGGAGCAAUAUUACGAUUC	-2.02 ± 0.29	–
GGAUAGCAAUAUUACGUAUU	-3.05 ± 0.2	-2.21 ± 0.28

Sequence	self-splicing fitness (ln) (30 °C)	self-splicing fitness (ln) (37 °C)
CGGUAGCAAUAUUACGUGCU	-3.24 ± 0.28	-2.51 ± 0.29
GACCAGCAAUAUUACGGAUG	-0.62 ± 0.056	0.157 ± 0.077
CCUCAGCAAUAUUACGCACG	-2.46 ± 0.17	-1.06 ± 0.18
AUGCAGCAAUAUUACGUAGU	-1.46 ± 0.088	-0.542 ± 0.089
CGACAGCAAUAUUACGGUUA	-0.601 ± 0.062	0.0311 ± 0.067
UGCGAGCAAUAUUACGUGGA	-3.04 ± 0.23	-3.49 ± 0.33
ACGCAGCAAUAUUACGCAUA	-2.18 ± 0.13	-0.994 ± 0.12
AAUAAGCAAUAUUACGCGCU	-0.554 ± 0.17	-0.562 ± 0.18
ACUUAGCAAUAUUACGUGGU	-3.62 ± 0.21	-2.26 ± 0.17
ACAAAGCAAUAUUACGAGAU	-4 ± 0.19	-1.55 ± 0.097
AUCAAGCAAUAUUACGCCAG	-3.08 ± 0.2	-1.32 ± 0.23
AACGAGCAAUAUUACGGCCG	-1.2 ± 0.12	-1.07 ± 0.21
UACUAGCAAUAUUACGAGAG	-2.94 ± 0.13	-2.43 ± 0.18
UUCCAGCAAUAUUACGAACA	-1.42 ± 0.21	-0.887 ± 0.17
GUACAGCAAUAUUACGAUCU	-0.934 ± 0.087	-0.527 ± 0.094
AGCAAGCAAUAUUACGUCGU	-1.72 ± 0.12	-0.897 ± 0.16
AUUGAGCAAUAUUACGGGGC	-3.06 ± 0.26	-3.09 ± 0.3
UGCCAGCAAUAUUACGACAC	-2.55 ± 0.35	-2.68 ± 0.38
AUCUAGCAAUAUUACGUCAG	-3.18 ± 0.2	-2.34 ± 0.2
